Experimental data reported in the supplement of paper PMC9112550, “Optimization of the antimicrobial peptide Bac7 by deep mutational scanning” (BMC Biology, 2022).

Tested on: Escherichia coli TOP10
Assay: shrunken log2 fold change of peptide-encoding DNA abundance (4.5 h post-induction vs induction); higher = less antimicrobial activity (less host growth inhibition)
Settings: time post-induction: 4.5 h; library: site-saturation at positions 5, 18, 19, 20
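Further: peptides expressed intracellularly from a pBAD plasmid library in pooled LB shake-flask culture, induced with 0.3% L-arabinose, DNA abundance read by NGS, three biological replicates, DESeq2 with apeglm shrinkage.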

Sequence | shrunken log2 fold change
RRIRGRPPRLPRPRPRPVNMPRP | 0.189
RRIRHRPPRLPRPRPRPRNTPRP | -0.229
RRIRRRPPRLPRPRPRPPFVPRP | 0.675
RRIRYRPPRLPRPRPRPNNEPRP | -1.27
RRIRLRPPRLPRPRPRPNCEPRP | -0.0439
RRIRKRPPRLPRPRPRPKLYPRP | 0.164
RRIRLRPPRLPRPRPRPKVIPRP | -0.185
RRIRWRPPRLPRPRPRPHIEPRP | 0.0376
RRIRTRPPRLPRPRPRPCKYPRP | -0.41
RRIRPRPPRLPRPRPRPMKLPRP | -0.0874
RRIRTRPPRLPRPRPRPSLIPRP | -0.424
RRIRARPPRLPRPRPRPDSSPRP | 0.371
RRIRARPPRLPRPRPRPMSLPRP | -0.229
RRIRWRPPRLPRPRPRPVNGPRP | -0.295
RRIRQRPPRLPRPRPRPQYDPRP | -0.081
RRIRLRPPRLPRPRPRPIAIPRP | 0.12
RRIRFRPPRLPRPRPRPQCGPRP | -0.0775
RRIRMRPPRLPRPRPRPEFRPRP | 0.275
RRIRERPPRLPRPRPRPLTSPRP | -0.00875
RRIRFRPPRLPRPRPRPSKSPRP | -0.123
RRIRPRPPRLPRPRPRPISSPRP | -0.0101
RRIRHRPPRLPRPRPRPLFTPRP | -0.699
RRIRARPPRLPRPRPRPVRNPRP | 0.142
RRIRKRPPRLPRPRPRPIATPRP | -0.0616
RRIRDRPPRLPRPRPRPQPWPRP | 0.11

Sequence | shrunken log2 fold change
RRIRMRPPRLPRPRPRPGHEPRP | 0.086
RRIRRRPPRLPRPRPRPLPLPRP | 0.0912
RRIRIRPPRLPRPRPRPWQNPRP | 0.00641
RRIRFRPPRLPRPRPRPSAHPRP | -0.352
RRIRARPPRLPRPRPRPVFMPRP | 0.0722
RRIRCRPPRLPRPRPRPCFEPRP | -0.00928
RRIRSRPPRLPRPRPRPILWPRP | -0.0848
RRIRQRPPRLPRPRPRPRILPRP | -0.275
RRIRNRPPRLPRPRPRPCWCPRP | -0.147
RRIRMRPPRLPRPRPRPKPAPRP | 1.55
RRIRIRPPRLPRPRPRPSTFPRP | -0.329
RRIRDRPPRLPRPRPRPDHNPRP | 0.0311
RRIRVRPPRLPRPRPRPAQAPRP | 0.74
RRIRCRPPRLPRPRPRPHAWPRP | -0.245
RRIRRRPPRLPRPRPRPWPYPRP | 0.131
RRIRWRPPRLPRPRPRPPEQPRP | 0.153
RRIRERPPRLPRPRPRPEGIPRP | 0.0236
RRIRGRPPRLPRPRPRPHHLPRP | 0.374
RRIRLRPPRLPRPRPRPFRDPRP | 0.00463
RRIRFRPPRLPRPRPRPHQHPRP | -0.582
RRIRVRPPRLPRPRPRPFWDPRP | -0.0687
RRIRERPPRLPRPRPRPRVGPRP | 0.33
RRIRWRPPRLPRPRPRPCTEPRP | -0.0149
RRIRIRPPRLPRPRPRPMSVPRP | 0.0466
RRIRERPPRLPRPRPRPKNCPRP | -0.0945

Sequence | shrunken log2 fold change
RRIRVRPPRLPRPRPRPNVKPRP | -0.159
RRIRARPPRLPRPRPRPIVKPRP | 0.0456
RRIRTRPPRLPRPRPRPSEPPRP | -0.295
RRIRWRPPRLPRPRPRPHTGPRP | -0.233
RRIRPRPPRLPRPRPRPTAPPRP | 0.528
RRIRVRPPRLPRPRPRPKWFPRP | -0.0567
RRIRHRPPRLPRPRPRPAIYPRP | -0.798
RRIRHRPPRLPRPRPRPTHLPRP | -0.102
RRIRNRPPRLPRPRPRPSSDPRP | -0.171
RRIRVRPPRLPRPRPRPYESPRP | -0.0252
RRIRARPPRLPRPRPRPTMTPRP | 0.9
RRIRKRPPRLPRPRPRPYKTPRP | -0.227
RRIRYRPPRLPRPRPRPTVNPRP | -0.45
RRIRTRPPRLPRPRPRPKNTPRP | -0.508
RRIRMRPPRLPRPRPRPFDGPRP | 0.136
RRIRNRPPRLPRPRPRPLHDPRP | -0.178
RRIRMRPPRLPRPRPRPLVDPRP | 0.526
RRIRGRPPRLPRPRPRPVCTPRP | 0.73
RRIRYRPPRLPRPRPRPCPYPRP | -0.0107
RRIRQRPPRLPRPRPRPIPRPRP | 0.145
RRIRGRPPRLPRPRPRPHVVPRP | 0.1
RRIRFRPPRLPRPRPRPPPAPRP | 1.49
RRIRERPPRLPRPRPRPYNTPRP | -0.742
RRIRRRPPRLPRPRPRPIYPPRP | -0.2
RRIRFRPPRLPRPRPRPLRDPRP | 0.717

Sequence | shrunken log2 fold change
RRIRMRPPRLPRPRPRPCLCPRP | -0.0635
RRIRNRPPRLPRPRPRPGECPRP | 0.266
RRIRCRPPRLPRPRPRPFVMPRP | -0.153
RRIRVRPPRLPRPRPRPKSLPRP | -0.0854
RRIRIRPPRLPRPRPRPACDPRP | -0.0913
RRIRQRPPRLPRPRPRPRGYPRP | -0.00234
RRIRHRPPRLPRPRPRPRIKPRP | -0.0701
RRIRCRPPRLPRPRPRPNVKPRP | -0.482
RRIRNRPPRLPRPRPRPWSMPRP | -0.0638
RRIRMRPPRLPRPRPRPNRPPRP | -0.0884
RRIRARPPRLPRPRPRPWIVPRP | -0.0598
RRIRPRPPRLPRPRPRPYWGPRP | -0.201
RRIRPRPPRLPRPRPRPRNTPRP | 1.19
RRIRKRPPRLPRPRPRPDDYPRP | 0.276
RRIRERPPRLPRPRPRPAENPRP | -0.27
RRIRIRPPRLPRPRPRPPFTPRP | 0.0753
RRIRIRPPRLPRPRPRPESRPRP | 0.0553
RRIRPRPPRLPRPRPRPKVYPRP | -0.292
RRIRNRPPRLPRPRPRPECNPRP | -0.0153
RRIRTRPPRLPRPRPRPMHHPRP | -0.00407
RRIRNRPPRLPRPRPRPQKGPRP | 0.0289
RRIRMRPPRLPRPRPRPSWNPRP | -0.15
RRIRARPPRLPRPRPRPSTPPRP | 0.235
RRIRNRPPRLPRPRPRPNMWPRP | -0.274
RRIRVRPPRLPRPRPRPQSTPRP | 0.00487

Sequence | shrunken log2 fold change
RRIRVRPPRLPRPRPRPDKSPRP | -0.0971
RRIRWRPPRLPRPRPRPTTQPRP | -0.0204
RRIRKRPPRLPRPRPRPHGHPRP | -0.248
RRIRHRPPRLPRPRPRPCDKPRP | -0.113
RRIRMRPPRLPRPRPRPPGIPRP | 1.2
RRIRFRPPRLPRPRPRPFDVPRP | -0.247
RRIRKRPPRLPRPRPRPVPHPRP | 0.189
RRIRLRPPRLPRPRPRPSYTPRP | -0.792
RRIRGRPPRLPRPRPRPILQPRP | 0.621
RRIRGRPPRLPRPRPRPIHHPRP | -0.0166
RRIRTRPPRLPRPRPRPMNRPRP | -0.0804
RRIRTRPPRLPRPRPRPPPGPRP | 0.668
RRIRLRPPRLPRPRPRPYWVPRP | 0.135
RRIRRRPPRLPRPRPRPSWFPRP | 0.165
RRIRARPPRLPRPRPRPKDTPRP | 0.293
RRIRRRPPRLPRPRPRPVQNPRP | 0.285
RRIRPRPPRLPRPRPRPINGPRP | -0.482
RRIRYRPPRLPRPRPRPSTEPRP | -0.435
RRIRLRPPRLPRPRPRPRDQPRP | 0.0949
RRIRERPPRLPRPRPRPDLAPRP | 0.27
RRIRQRPPRLPRPRPRPGFAPRP | 0.249
RRIRQRPPRLPRPRPRPYGWPRP | -0.112
RRIRIRPPRLPRPRPRPLENPRP | -0.309
RRIRCRPPRLPRPRPRPVWNPRP | 0.0577
RRIRPRPPRLPRPRPRPRKAPRP | 0.0787
